From patent publication US20240336681A1 (LUDWIG MAXIMILIANS UNIVERSIT T M NCHEN, published 2024)
Residue numbers refer to the chain shown, from its start.

B1: 2D6-096 (scFv, V domains shown, not shown: small tags and cut ends)
VH: QVQLVESGGGLVQPGGSLRLSCAASGYTFTSYDINWVRQAPGKGLEWVGWIYPRDGSPKYNEKFKGRFTISADTSKNTAYLQMNSLRAEDTAVYYCARSVYYGTQFAYWGQGTLVTVSS
VL: DIQMTQSPSSLSASVGDRVTITCKSSQSLLNSRTRKNYLAWYQQKPGKAPKLLIYWASTRDSGVPSRFSGSGSGTDFTLTISSLQPEDFATYYCKQSFNLVTFGQGTKVEIK
notes: Standalone scFv; also called anti-CD47 scFv (2D6-096); VH3/VL3
B2: 2D6-059 (bispecific antibody, part only; not given: linkers and anti-TAA IgG1 chains, V domains shown, not shown: another chain or arm of the molecule; large carriers; small tags and cut ends)
VH: QVELVQSGPEVKKPGSSVKVSCKASGYTFPSYDINWVRQRPGQCLEWMGGIYPRSGSPKYNEKFKGRVTITADTSTSTAYMELHSLRSEDTAVYYCARSVYYGTQFAYWGQGTLVTVSA
VL: DIVLTQSPSSLAVSLGERVTMSCKSSQSLLNSRTRKNYLAWYQQKPGQPPKLLIYWASTRDSGVPDRFSGSGSGTDFTLTISSLQAEDVAVYYCQQSFNLVTFGCGTKLEIK
B3: 2D6-056 (bispecific antibody, part only; not given: linkers and anti-TAA IgG1 chains, V domains shown, not shown: another chain or arm of the molecule; large carriers; small tags and cut ends)
VH: B2 VH with C44G
VL: B2 VL with C105G
B4: MSL-745 (bispecific antibody, part only; not given: anti-mesothelin IgG1 chains and linkers, V domains shown, not shown: another chain or arm of the molecule; large carriers; small tags and cut ends)
VH: B2 VH
VL: B2 VL
B5: 2D6-031 (bispecific antibody, part only; not given: linkers and anti-TAA IgG1 chains, V domains shown, not shown: another chain or arm of the molecule; large carriers; small tags and cut ends)
VH: B1 VH with T30P
VL: B1 VL
B6: 2D6-032 (bispecific antibody, part only; not given: linkers and anti-TAA IgG1 chains, V domains shown, not shown: another chain or arm of the molecule; large carriers; small tags and cut ends)
VH: B1 VH with T30P
VL: B1 VL with Q3V, S66D
B7: 2D6-022 (bispecific antibody, part only; not given: linkers and anti-TAA IgG1 chains, V domains shown, not shown: another chain or arm of the molecule; large carriers; small tags and cut ends)
VH: B2 VH with C44G, G50W, S55D
VL: B2 VL with Q95K, C105G
B8: 2D6-016 (antibody, IgG4, V domains shown)
VH: B1 VH with T30P
VL: B1 VL with Q3V, S66D
notes: hIgG4 (humanized IgG4); only the variable domains are tied to the construct; also called VH4/VL4
B9: 2D6-015 (antibody, IgG4, V domains shown)
VH: B1 VH with T30P
VL: B1 VL
notes: hIgG4 (humanized IgG4); only the variable domains are tied to the construct; also called VH4/VL3
B10: 2D6-076 (antibody, IgG1, V domains shown)
VH: B2 VH with C44G, G50W, S55D
VL: B2 VL with C105G
notes: hIgG1 (humanized IgG1); only the variable domains are tied to the construct; also called VH2/VL2.7
B11: 2D6-066 (antibody, IgG1, V domains shown)
VH: B2 VH with C44G, G50W, Y52I, S55D
VL: B2 VL with L4M, Q95K, C105G
notes: hIgG1 (humanized IgG1); only the variable domains are tied to the construct; also called VH2.4/VL2
B12: 2D6-067 (antibody, IgG1, V domains shown)
VH: B2 VH with C44G, G50W, S55F
VL: B2 VL with L4M, Q95K, C105G
notes: hIgG1 (humanized IgG1); only the variable domains are tied to the construct; also called VH2.5/VL2
B13: 2D6-005 (antibody, IgG4, V domains shown)
VH: B2 VH with C44G, G50W, S55D
VL: B1 VL with Q3V, M4L, I21M, T22S, F89I, Q105G, V109L
notes: hIgG4 (humanized IgG4), human kappa constant light chain from vector; only the variable domains are tied to the construct; also called VH2/VL1

biological target: T1, recombinant C-terminally His-tagged human CD47 (extracellular domain) (human, UniProt Q08722 19-141); experiment: SPR, Biacore X100
T1 construct: also called recombinantly expressed human CD47 extracellular domain
T1 sequence (Q08722 19-141): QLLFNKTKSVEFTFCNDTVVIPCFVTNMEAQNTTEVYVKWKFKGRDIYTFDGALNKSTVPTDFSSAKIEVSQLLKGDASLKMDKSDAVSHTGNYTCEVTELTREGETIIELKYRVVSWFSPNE

koff	kon	Binder
0.00163 s⁻¹	81500 M⁻¹ s⁻¹	B1

biological target: recombinant C-terminally His-tagged human CD47 (extracellular domain) (human) (UniProt Q08722); experiment: SPR (affinity to CD47 as measured by SPR)
Sequence (Q08722 19-141): as above

Kd	Binder
0.568 µM	B2
0.659 µM	B3

biological target: recombinant C-terminally His-tagged human CD47 (extracellular domain) (human) (UniProt Q08722); experiment: SPR, Biacore X100; analyte hCD47 31.25 to 2000 nM

koff	kon	Binder
0.396 s⁻¹	685000 M⁻¹ s⁻¹	B4

biological target: T1, recombinant C-terminally His-tagged …; experiment: SPR, Biacore X100; format for the scFv not described

Kd	Binder
0.02 µM	B1

biological target: recombinant C-terminally His-tagged human CD47 (extracellular domain) (human) (UniProt Q08722); experiment: SPR, Biacore X100; construct captured by anti-human Fc on CM5 chip, human CD47 extracellular domain as analyte, 1:1 fit

Kd	Binder
0.138 µM	B5
0.141 µM	B6
0.578 µM	B4
0.106 µM	B7

biological target: recombinant C-terminally His-tagged human CD47 (extracellular domain) (human) (UniProt Q08722); experiment: SPR, Biacore X100; construct captured by anti-human Fc on a CM5 chip, CD47 extracellular domain as analyte, 1:1 fit

koff	kon	Binder
0.14 s⁻¹	990000 M⁻¹ s⁻¹	B5
0.13 s⁻¹	960000 M⁻¹ s⁻¹	B6
0.07 s⁻¹	660000 M⁻¹ s⁻¹	B7

biological target: T1, recombinant C-terminally His-tagged …; experiment: SPR, Biacore X100; construct captured by anti-human Fc on CM5 chip, human CD47 extracellular domain as analyte, 1:1 fit
Description: (§1) Surface Plasmon Resonance (SPR) was used in addition to analyse binding of the different protein constructs to recombinantly expressed CD47 and to determine their affinity. Association (Kₒₙ) and dissociation (Koff) rate constants were determined by SPR using a Biacore™ X-100 (Cytiva). Using the Human antibody capture kit an anti-human Fc antibody was immobilized on a CM5 sensor chip in a covalent manner using the Amine coupling Kit according to manufacturer's instructions. Humanized anti-hCD47 IgGs were injected as ligand to reach a surface coverage of approximately 100 RU-400 RU. Recombinantly expressed human CD47 extracellular domain was used as analyte and injected in increasing concentrations (e. g. from 3.9 to 1000 nM), with standard association time of 120 s and dissociation time of 600 s. Experiments were performed in multi-cycle kinetics runs, with regeneration between sample injection with the respective regeneration buffer (3M MgCl2 for the human antibody capture kit). All reagents were diluted in HBS-EP+ buffer (Cytiva). Data are fit to a simple 1:1 interaction model using the global data analysis option available within BiaEvaluation 2.0.1 software. The dissociation constant (KD) was used as a value for the affinity and was calculated from the ratio between Koff and Kₒₙ.

Kd	Binder
0.203 µM	B8
0.311 µM	B9
0.974 µM	B10
1.31 µM	B11
0.219 µM	B12
0.176 µM	B13

biological target: T2, human CD47 on cells (human, UniProt Q08722 19-323); experiment: flow cytometry on CD47-positive Expi293 cells, 50 nM antibody; MFI of the antibody over MFI of the isotype control
T2 construct: also called CD47 on Molm-13, OVCAR-3, Suit-2 MSLN, HL-60 cells, red blood cells and CD47-transfected CHO cells
T2 sequence (Q08722 19-323): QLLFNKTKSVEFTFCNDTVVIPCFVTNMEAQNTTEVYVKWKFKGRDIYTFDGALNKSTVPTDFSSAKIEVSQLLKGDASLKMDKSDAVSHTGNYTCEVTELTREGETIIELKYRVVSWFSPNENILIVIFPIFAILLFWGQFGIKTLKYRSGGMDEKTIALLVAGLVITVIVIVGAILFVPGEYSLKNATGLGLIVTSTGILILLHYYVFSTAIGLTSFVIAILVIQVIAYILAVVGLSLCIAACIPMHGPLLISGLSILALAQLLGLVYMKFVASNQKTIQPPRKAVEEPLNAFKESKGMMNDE
Description: Initially, binding of anti-hCD47 IgG4, anti-hCD47 IgG1 antibodies and Fab domains were measured on CD47-expressing cells by flow cytometry. Cells were stained with 50 nM of antibody followed by staining with a secondary fluorescently labelled anti-human IgG Fc or light-chain antibody, and analyzed by flow cytometry. Binding was measured by calculating the median fluorescence intensity (MFI) ratio, by dividing MFI of the antibody by the MFI of the isotype control.

MFI ratio	Binder
3.42	B8
4.14	B9
4.95	B13

biological target: T1, recombinant C-terminally His-tagged …; experiment: SPR, Biacore X100; antibody captured by anti-human Fc on a CM5 chip, CD47 extracellular domain as analyte, 1:1 fit
Description: as §1

Kd	koff	kon	Binder
0.203 µM	0.36 s⁻¹	1.8e+06 M⁻¹ s⁻¹	B8
0.31 µM	0.22 s⁻¹	710000 M⁻¹ s⁻¹	B9
0.97 µM	0.48 s⁻¹	490000 M⁻¹ s⁻¹	B10
1.31 µM	0.32 s⁻¹	250000 M⁻¹ s⁻¹	B11
0.219 µM	0.16 s⁻¹	720000 M⁻¹ s⁻¹	B12
0.17 µM	0.13 s⁻¹	760000 M⁻¹ s⁻¹	B13
